Drawing on publication doi:10.1101/730739, this text covers fold lower affinity than for bovine transferrin and absorbance signal relative to that with bovine transferrin for 3 substances.

For test [1], the target named is BAP-tagged Histophilus somni Transferrin binding protein B (aa 21-643) (Histophilus somni strain H191). The test is described as follows: BLI.
Test [2] deals with ovine transferrin (sheep). Put plainly: ELISA. On the technique in general: ELISA stands for enzyme-linked immunosorbent assay.
The target of test [3] is caprine transferrin (goat). The test is described as follows: ELISA.

Turning to ovine transferrin (ligand), the fold lower affinity than for bovine transferrin in test [1] worked out at 3 fold.

The substance caprine transferrin (ligand) had a fold lower affinity than for bovine transferrin in test [1] of 15.7 fold.

In the case of “Histophilus somni Transferrin binding protein A 2 (receptor)”, the absorbance signal relative to that with bovine transferrin in test [2] and in test [3] was 0.25 fold throughout.
